Source: patent US11123413B2, “Carbapenemases for use with antibiotics for the protection of the intestinal microbiome” (priority 2015, dated 2021)
Where “and” joins values, the source holds several entries; their conditions need not be identical. Equal entries are not always repeated.

What was measured:
[1] = P2A concentration estimate and specific activity in cell lysates (CENTA assay, P2A protein standard); format: biochemical; conditions: BLR (DE3) P2A Clone 1 lysate, replicates 1 and 2
Procedure: To achieve an estimate of the amount of P2A protein in each of the lysates, dilutions of the lysates (5 ul, 2.5 ul, 1.3 ul, and 0.63 ul) were evaluated on SDS/PAGE compared to dilutions of a purified P2A standard protein (2.0 ug, 1.0 ug, 0.5 ug, 0.25 ug, 0.13 ug). Based on the P2A protein band intensities, an estimate of the amount of P2A protein in each of the lysates was obtained. The biological activity of the P2A protein in the cell lysates under the different lysing conditions was evaluated using the CENTA chromogenic assay compared to the biological activity of the P2A protein standard. The biological activity was normalized based on the P2A protein concentration estimate and an estimated P2A specific activity was obtained. […] The P2A expression cassette without the leader will be used for future studies.
Based on the P2A protein band intensities, an estimate of the amount of P2A protein in each of the lysates was obtained. The biological activity of the P2A protein in these cell lysates was evaluated using the CENTA chromogenic assay compared to the biological activity of the P2A protein standard. The biological activity was normalized based on the P2A protein concentration estimate and an estimated P2A specific activity was obtained.

[2] = Oral P2A and intravenous ampicillin in jejunal-fistulated dogs; format: in vivo, laboratory beagles; conditions: peroral P2A 1 mg/kg liquid formulation, intravenous ampicillin 40 mg/kg
Procedure: The ability of P2A to degrade ampicillin in the dog intestinal tract was evaluated using laboratory beagles that had permanent jejunal fistulas. The fistulas allowed the repeated collection of jejunal chyme specimens from these animals. Dogs were treated with peroral P2A (1 mg/kg) in a liquid formulation (PBS buffer), and/or intravenous ampicillin (40 mg/kg). Serum samples were collected and serum ampicillin levels quantified. Jejunal chyme samples were collected and ampicillin and P2A levels were quantified. Ampicillin levels in serum and chyme were measured using a standard reverse phase HPLC method. P2A activity levels in chyme were determined spectrophotometrically using meropenem as a substrate. Meropenem hydrolysis was monitored at a wavelength of 297 nm.

[3] = test system: E. coli (ATCC 25922); assay: Antibiotic inactivation screening assay via E. coli growth (96 well plate, OD625); format: cell-based; conditions: 10 ng/ml or 100 ng/ml enzyme (FIG. 35)
[4] = NDM in dilutions of mixed human chyme with and without protease inhibitors (SDS-PAGE, CENTA); format: in vitro ADME; conditions: 30 minutes
Procedure: NDM activity was lost immediately upon incubation in the mixed human chyme (FIG. 24). To determine if the loss in activity was due to digestion by proteases present in the human chyme, purified NDM (100 ug/ml) was incubated for 30 minutes with dilutions of human mixed chyme ranging from 100% to 0% chyme in the absence or presence of a serine protease inhibitor cocktail (SigmaFAST protease inhibitors cocktail without EDTA (Sigma-Aldrich catalog number S8830). All incubations were performed in the presence of 100 μM ZnSO4 (final concentration). Samples removed at 30 minutes were transferred to lamelli sample buffer containing beta mercaptoethanol for analysis of protein degradation by gel electrophoreses and staining with coomassie blue. The remaining samples were snap frozen and used for evaluation of beta lactamase activity using a CENTA substrate (FIG. 25). […] In addition, most of the activity of NDM was retained at chyme dilutions of 3.13% or less (FIG. 25, panel A). In the presence of protease inhibitors, the majority of the NDM activity was retained at chyme dilutions of 50% or less.

[5] = KPC and NDM stability in mixed human chyme versus buffer (CENTA); format: in vitro ADME; conditions: 100 μM ZnSO4, 37° C., 80 ng/mL
Procedure: The stability of KPC and NDM in human chyme at 37° C. was evaluated by adding purified KPC or NDM (final concentration of 80 ng/mL) to mixed human chyme that contained equal volumes of each of five human chyme specimens collected from five different donors. ZnSO4 was added to the mixed chyme for a final concentration of 100 μM ZnSO4. Aliquots of the enzyme/chyme mixture were collected at 0, 30, 60, 120, 180, and 240 minutes of incubation and evaluated for beta-lactamase activity with a chromogenic assay using the CENTA reagent as the substrate. The biological activity of the enzymes in the mixed chyme was compared to the activity in buffer (HEPES buffer, 100 μM ZnSO4 pH 6.2).

| Molecule | % Activity Compared to P2A standard ([1]; induction 18 o/n) | P2A-lactamase Activity ([1]; induction 18 o/n) | % Activity Compared to P2A standard ([1]; induction 25 on) | P2A-lactamase Activity ([1]; induction 25 on) | % Activity Compared to P2A standard ([1]; induction 37 3 hrs) | P2A-lactamase Activity ([1]; induction 37 3 hrs) | ampicillin in jejunal chyme [2] | effect on serum levels of ampicillin [2] | activity against cephalosporins compared to SYN-004 or P4A [3] | chyme dilution at which the majority of the activity was retained ([4]; in the presence of protease inhibitors) [%] | chyme dilution at which most of the activity was retained ([4]; without protease inhibitors) [%] | chyme dilution at which intact protein could be detected ([4]; without protease inhibitors, SDS-PAGE) [%] | time by which activity was lost / not detectable [5] [min] |
| --- | --- | --- | --- | --- | --- | --- | --- | --- | --- | --- | --- | --- | --- |
| P2A: broad spectrum carbapenemase, class B metallo-enzyme requiring zinc, SEQ ID NO: 37; P2A-21 = product of strain SYT-PP0602-21 (protein) ETGTISISQLNKNVWVHTELGYFNGEAVPSNGLVLNTSKGLVLVDSSWDNKLTKELIEMVEKKFQKRVTDVIITHAHADRIGGITALKERGIKAHSTALTAELAKNSGYEEPLGDLQTITSLKFGNTKVETFYPGKGHTEDNIVVWLPQYQILAGGCLVKSAEAKDLGNVADAYVNEWSTSIENVLKRYGNINSVVPGHGEVGDKGLLLHTLDLLK | 103% and 156% | 0.21 mg/mL and 0.16 mg/mL | 148% and 135% | 0.30 mg/mL and 0.27 mg/mL | 131% and 182% | 0.13 mg/mL and 0.18 mg/mL | degraded ampicillin | does not reduce serum levels of ampicillin | not as active against the cephalosporins, cefozolin, cefoperazone, cefepime, and ceftazidime | – | – | – | – |
| NDM: New Delhi metallo-β-lactamase NDM-1; NDM-68 = product of strain STY-NP1602-68 (STII Δ35, N-terminal GQQMETG) (protein) GQQMETGDQRFGDLVFRQLAPNVWQHTSYLDMPGFGAVASNGLIVRDGGRVLVVDTAWTDDQTAQILNWIKQEINLPVALAVVTHAHQDKMGGMDALHAAGIATYANALSNQLAPQEGMVAAQHSLTFAANGWVEPATAPNFGPLKVFYPGPGHTSDNITVGIDGTDIAFGGCLIKDSKAKSLGNLGDADTEHYAASARAFGAAFPKASMIVMSHSAPDSRAAITHTARMADKLR | – | – | – | – | – | – | – | – | – | ≤ 50 | ≤ 3.13 | ≤ 6.25 | ≤ 30 |
